Results as given in paper doi:10.1101/2025.05.22.655505 (bioRxiv, 2025).

Tests used:
[1] = target: Mpox A28 (OPG153), residues 2-361, recombinant antigen (Monkeypox virus; template GenBank …, UniProt A0A7H0DNC4); assay: ELISA
[2] = target: VACV A26 (OPG153), residues 2-361, recombinant antigen (Vaccinia virus strain IHDW (GenBank …, UniProt P24758, strain)); assay: ELISA

B1: 10M2146, human anti-A28 monoclonal antibody, IgG1 (antibody, V domains shown)
VH: EVQLVQSGAEVKKPGESLKISCKGSGYSFTTHWIGWVRQMPGEGLEWLGIIYPGDSETKYSPSFQGQVTISVDKSINTAYLHWSSLKASDTAMYFCARRPKNYYDASGYYNWLDPWGQGTLVTVSS
VL: EIQMTQSPSTLSASVGDRVTITCRASQSLSTWLAWYQQKPGKAPKLLIYKASILESGVPSRFSASGSGTEFTLTISGLQPDDFATYYCQQYNSYLGAFGQGTKVEIK
binding result [1]: binds
binding result [2]: binds
